# Assay results taken from patent US20120071394A1 (ALLIGATOR BIOSCIENCE, published 2012).
# Target: T1, Wild-type CHIPS1-121 (Chemotaxis Inhibitory Protein of Staphylococcus aureus) (Staphylococcus aureus, UniProt A6QIG7 29-149)
# T1 construct: His tag cleaved off with enterokinase; also called CHIPSWT
# Experiment: flow cytometry of gated blood neutrophils after iv CHIPS, stained with rabbit anti-CHIPS IgG and FITC goat anti-rabbit; the staining does not separate C5aR-bound from FPR-bound CHIPS
row,Binder,binding result
1,"human C5a receptor (C5aR) (receptor, whole, on cells; also called CD88) MDSFNYTTPDYGHYDDKDTLDLNTPVDKTSNTLRVPDILALVIFAVVFLVGVLGNALVVWVTAFEAKRTINAIWFLNLAVADFLSCLALPILFTSIVQHHHWPFGGAACSILPSLILLNMYASILLLATISADRFLLVFKPIWCQNFRGAGLAWIACAVAWGLALLLTIPSFLYRVVREEYFPPKVLCGVDYSHDKRRERAVAIVRLVLGFLWPLLTLTICYTFILLRTWSRRATRSTKTLKVVVAVVASFFIFWLPYQVTGIMMSFLEPSSPTFLLLKKLDSLCVSFAYINCCINPIIYVVAGQGFQGRLRKSLPSLLRNVLTEESVVRESKSFTRSTVDTMAQKTQAV",binds
2,"formylated peptide receptor (FPR) (receptor, whole, on cells) METNSSLPTNISGGTPAVSAGYLFLDIITYLVFAVTFVLGVLGNGLVIWVAGFRMTHTVTTISYLNLAVADFCFTSTLPFFMVRKAMGGHWPFGWFLCKFVFTIVDINLFGSVFLIALIALDRCVCVLHPVWTQNHRTVSLAKKVIIGPWVMALLLTLPVIIRVTTVPGKTGTVACTFNFSPWTNDPKERINVAVAMLTVRGIIRFIIGFSAPMSIVAVSYGLIATKIHKQGLIKSSRPLRVLSFVAAAFFLCWSPYQVVALIATVRIRELLQGMYKEIGIAVDVTSALAFFNSCLNPMLYVFMGQDFRERLIHALPASLERALTEDSTQTSDTATNSTLPSAEVELQAK",binds
